Results: patent publication US20240317877A1 (IUCF HYU INDUSTRY UNIVERSITY COOPERATION FOUNDATION HANYANG …, published 2024)
Substitutions are numbered along the chain they refer to. Numbers in names are those of the source.

B1: anti-human transferrin receptor antibody 128.1, wild type (WT) (antibody, V domains shown)
VH: EVQLQQSGPELVKPGASMKISCKASGYSFTGYTMNWVKQSHGENLEWIGRINPHNGGTDYNQKFKDKAPLTVDKSSNTAYMELLSLTSEDSAVYYCARGYYYYSLDYWGQGTSVTVSS
VL: QIVLTQSPAIMSASPGEKVTMTCSASSSIDYIHWYQQKSGTSPKRWIYDTSKLASGVPARFSGSGSGTSYSLTISSMEPEDAATYYCHQRNSYPWTFGGGTRLEIR
notes: The ELISA detects with anti-human IgG-HRP; also called anti-hTfR antibody; anti-TfR(WT)
B2: anti-human transferrin receptor antibody 128.1 with VH Y27H mutation (antibody, V domains shown)
VH: B1 VH with Y27H
VL: B1 VL
notes: Same vector format as WT (human IgG constant region with myc-His tag, human kappa CL); also called anti-TfR(VH Y27H)
B3: anti-human transferrin receptor antibody 128.1 with VH Y98A mutation (antibody, V domains shown)
VH: B1 VH with Y102A
VL: B1 VL
B4: anti-human transferrin receptor antibody 128.1 with VH Y99H mutation (antibody, V domains shown)
VH: B1 VH with Y103H
VL: B1 VL
B5: anti-human transferrin receptor antibody 128.1 with VL Y94A mutation (antibody, V domains shown)
VH: B1 VH
VL: B1 VL with Y93A

Key:
[1] = target: T1, human transferrin receptor (human, UniProt P02786 89-760, limits assumed); experiment: ELISA, plate-coated human TfR, anti-human IgG-HRP detection; WT run beside VL Y94A
T1 construct: also called hTfR; human TfR
Procedure: (§1) Human TfR (2.5 μg/ml) was coated on a 96-well half area plate (Corning) overnight at 4° C. Antibodies were prepared by diluting 5-fold from 50 nM to 0.64 pM. PBS (pH 7.5; same as blocking buffer) containing 5% skim milk was used for dilution. The plate was washed three times with PBS at pH 7.5, and then blocked with blocking buffer at room temperature for 2 hours and washed several more times. Various concentrations of anti-TfR antibodies were placed in the wells, and binding was induced for 2 hours. Unbound antibodies were then washed twice with PBST and twice with PBS.
(§2) Horseradish peroxidase (HRP)-conjugated anti-human IgG antibody (AB frontier) was added and incubated for 2 hours. After the antibody washing step, 50 μl of TMB solution was added and incubated at 37° C. for 20 minutes. Finally, an equal volume of stop solution was added and mixed, and then the absorbance was measured at 450 nm using an EMax Microplate Reader (Molecular Devices). Steps other than TMB incubation were performed at room temperature.

[2] = target: T1, human transferrin receptor; experiment: ELISA, plate-coated human TfR, anti-human IgG-HRP detection; WT run beside VH Y99H
Procedure: as §1, §2

[3] = target: T1, human transferrin receptor; experiment: ELISA, plate-coated human TfR, anti-human IgG-HRP detection; WT run beside VH Y27H
Procedure: as §1, §2

[4] = target: T1, human transferrin receptor; experiment: ELISA, plate-coated human TfR, anti-human IgG-HRP detection; WT run beside VH Y98A
Procedure: as §1, §2

[5] = target: T1, human transferrin receptor; experiment: ELISA, plate-coated human TfR; mutant against WT
Procedure: as §1, §2

[6] = target: T1, human transferrin receptor; experiment: ELISA, plate-coated human TfR, anti-human IgG-HRP detection
Procedure: as §1, §2

T1 sequence (P02786 89-760 limits assumed): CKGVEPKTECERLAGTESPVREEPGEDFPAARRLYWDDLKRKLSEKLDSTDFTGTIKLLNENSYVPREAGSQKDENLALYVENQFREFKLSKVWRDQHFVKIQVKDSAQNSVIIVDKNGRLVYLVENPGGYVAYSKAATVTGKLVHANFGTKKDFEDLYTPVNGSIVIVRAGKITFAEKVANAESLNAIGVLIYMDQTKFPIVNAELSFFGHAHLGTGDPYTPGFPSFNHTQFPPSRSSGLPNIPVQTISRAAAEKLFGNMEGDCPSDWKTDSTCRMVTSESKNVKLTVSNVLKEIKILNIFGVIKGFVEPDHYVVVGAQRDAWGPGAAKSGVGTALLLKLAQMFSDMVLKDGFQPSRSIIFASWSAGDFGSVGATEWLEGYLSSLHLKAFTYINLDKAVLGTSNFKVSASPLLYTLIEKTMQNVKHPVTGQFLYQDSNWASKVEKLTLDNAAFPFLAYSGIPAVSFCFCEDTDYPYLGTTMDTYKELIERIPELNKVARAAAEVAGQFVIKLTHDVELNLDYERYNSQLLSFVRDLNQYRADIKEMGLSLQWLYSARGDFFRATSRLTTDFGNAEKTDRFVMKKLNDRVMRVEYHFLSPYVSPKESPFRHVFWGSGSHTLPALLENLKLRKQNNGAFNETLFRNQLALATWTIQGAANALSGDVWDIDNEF

Binder	EC50 [1]	EC50 [2]	EC50 [3]	EC50 [4]	Fold-increase of EC50 (Reduced rate of binding affinity) [5]	EC50 [6]
B1	0.44 nM	0.048 nM	0.057 nM	0.53 nM	–	–
B2	–	–	–	–	35 fold	1.98 nM
B3	–	–	–	–	> 100 fold	–
B4	–	–	–	–	9.2 fold	0.44 nM
B5	–	–	–	–	1.2 fold	0.52 nM
